From paper PMC11020826

Target: PYE-GFP (Arabidopsis) (UniProt Q9SN74)
Assay: FRET or BRET; FRET-APB (acceptor photobleaching) in nuclei of transiently transformed tobacco leaf epidermis cells; GFP donor, mCherry acceptor; ß-estradiol-induced; n = 15 nuclei; negative control donor only

UniProt Q9SN74, sequence (Q9SN74 whole entry): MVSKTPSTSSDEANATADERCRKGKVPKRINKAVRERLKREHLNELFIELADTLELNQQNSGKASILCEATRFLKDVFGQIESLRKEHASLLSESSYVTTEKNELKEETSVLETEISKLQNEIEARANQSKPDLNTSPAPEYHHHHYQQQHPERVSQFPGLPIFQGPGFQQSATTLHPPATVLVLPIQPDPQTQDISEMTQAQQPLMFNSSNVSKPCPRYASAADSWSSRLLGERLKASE

FRET efficiency: 3.5%
Substance: OLV-mCherry (natural protein)
